The nanobody polyreactivity screen of Harvey et al. (2022)

Assay: yeast display, Sf9 membrane polyspecificity reagent, FACS + sequencing; frameworks hold sequencing errors
How it was run: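 Using colony PCR, genes from sorted yeast display clones were amplified, then sequenced on MiSeq at 2 × 250 and filtered by CDR length. The clones had been stained with 10% biotinylated, detergent-solubilized Sf9 membrane reagent for 1 hour at 4 °C and sorted by FACS into low and high (top ~1%) gates on anti-HA and streptavidin fluorescence. Polyreactivity labels come from the gate of origin.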

| Sequence | polyreactivity (PSR sort gate) |
| --- | --- |
| QVQLVESGGGLVQAGGSLRLSCAASGRIIGYYAMGWYRQAPGKERELVAAISRRGGSTYYADSVKGRFTISRDNAKNTVYLQMNSLKPEDTAVYYCNADRVLTRPRYDYWGQGTQVTVSS | low polyreactivity |
| QVQLVESGGGLVQAGGSLRLSCAASGRIIGYYAMGWYRQAPGKEWELVAAITSSGSRTYYADSVKGRFTISRDNAKNTVYLQMNSLKPDDTAVYYCATTKVYYSAKSSYYYWGQGNQVTVSS | high polyreactivity |
| QVQLVESGGGLVQAGGSLRLSCAASGRIIKLYAMGWYRQAPGKEREFVAAITWSGGRTYYADSVKGRFTISRDNAKNTVYLQMNSLKPEDTAVYYCAAYDTYDWYDYWGQGTQVTVSS | high polyreactivity |
| QVQLVESGGGLVQAGGSLRLSCAASGRIIPNNAMGWYRQAPGKERELVAAITRGGTTYADSVKGRFTISRDNAKNTVYLQMNSLKPEDTAVYYCDTAAVKYGYRYYYWGQGTQVTVSS | high polyreactivity |
| QVQLVESGGGLVQAGGSLRLSCAASGRIIPRNAMGWYRQAPGKEMELVAGISRGGSTYYADSVKGRFTISRDNAKNTVYLQMNSLKTEDTAVYYCAAAYQKSPITPKMDYWGQGTQVTVSS | low polyreactivity |
| QVQLVESGGGLVQAGGSLRLSCAASGRIIQGYAIGWYRQAPGKERELVDAIRSGSGSTYYADSVKGRFTISRDNAKNTVYLQMNSLKPEDTAVYYCAADRYYWGQGTQVTVSS | low polyreactivity |
| QVQLVESGGGLVQAGGSLRLSCAASGRIIRINAMGSYRPAPGKERELVAAITRGGTTYADSVKGRFTISRDNAKNTVYLQMTSLIPEDTSVYNCNARTGRSPSGFRYWGQGTQVTVSS | high polyreactivity |
| QVQLVESGGGLVQAGGSLRLSCAASGRIIRINAMGWYRQAPGKERELVATISRSGGRTYYADSVKGRFTISRDNAKNTVYLQMNSLKPEDTAVYYCNADHFYYSSQYGYWGQGTQVTVSS | high polyreactivity |
| QVQLVESGGGLVQAGGSLRLSCAASGRIIRYYAMGWYRQAPGKEREFVATISSGGSTNYADSVKGRFTISRDNAKNTVYLQMNSLKPEDTAVYYCNRVYRRHVWGQGTQVTVSS | high polyreactivity |
| QVQLVESGGGLVQAGGSLRLSCAASGRIISRYTMGWSRQAPGKEREWVAGISRSGDRTYYADSVKGRFTISRDNAKNTVYLQMNSLKPEDTAVYSCNAGYWRFIDSYDYWGQGTQVTVSS | high polyreactivity |
| QVQLVESGGGLVQAGGSLRLSCAASGRIISYYAMGWYRQAPGKERELVAAISRSGGSTYYADSVKGRFTISRDNAKNTVYLQMNSLKPEDTAVYYCAKYFRPVQGDKWGFKYWGQGTQVTVSS | high polyreactivity |
| QVQLVESGGGLVQAGGSLRLSCAASGRIITYYAMGWYRQAPGKERELVAAITASGSRTYYADSVKGRFTISRDNAKNTVYLQMNSLKPEDTAVYYCAALSRLSPLSGSYYWGQGTQVTVSS | high polyreactivity |
| QVQLVESGGGLVQAGGSLRLSCAASGRIIYGNAMGWYRQAPGKERELVAAITSGGSTNYADSVKGRFTISRDNAKNTVYLQMNSLKPEDTAVYYCNAVVYSPYRYEYWGQGTQVTVSS | low polyreactivity |
| QVQLVESGGGLVQAGGSLRLSCAASGRIIYGYAMGWDRQAPGKEREFVARINVSGTSTFYADSVKGRFTISRDNAKNTVYLQMNSLKTVDTAVYDCAARGLPSNYYYYVHGYIMDHWGQGTQVSVSS | low polyreactivity |
| QVQLVESGGGLVQAGGSLRLSCAASGRIIYIYAMGWYRQAPGKERELVAAITASSGSTNYADSVKGRFTISRDNAKNTVYLQLNSLKPEDTAVYYCAAAPSRTLLRQSKYYYWGQGTQVTVSS | low polyreactivity |
| QVQLVESGGGLVQAGGSLRLSCAASGRIIYKYAMGWYRQAPGKERELVAAISYSGGSTYYADSVKGRFTISRDNAKNTVYLQMKSLKPEDTAVYYCNAKPPYGVRSWGDYWGQGTQVNVSS | low polyreactivity |
| QVQLVESGGGLVQAGGSLRLSCAASGRIIYPNTMGWYRQAPGKERELVAAINRLGGSTYYADSVKGRFTISRDYAKNTVYLQMNSLIPEDTAVYYCAAYTTWTRSGYYDFTSYFWGQGTQVTVSS | high polyreactivity |
| QVQLVESGGGLVQAGGSLRLSCAASGRIIYPYALGWYRQAPGKERELVAAISSGSSTNYADSVKGRFTISRDNAKNTVYLQMNSLQPEDTAVYYCNADLVSGVVYDSDYWGQGTQVTVSS | low polyreactivity |
| QVQLVESGGGLVQAGGSLRLSCAASGRIIYRYAMGWYRQAPGKERELVATITWSTTSTYYADSVKGRFTISRDNAKNTVYLEMNSLKPEDTAVYYCASSIIPGFRRDPFGYWGQGTQVTVSS | low polyreactivity |
| QVQLVESGGGLVQAGGSLRLSCAASGRIIYTYAMAWYRQAPGKERELVAAISWSGGSTYYADSVKGRFTISRDNAKNTVYLQMNSMKPEDTAVYYCNAAYYGYENLSKRGYWGQGTQVTVSS | high polyreactivity |
| QVQLVESGGGLVQAGGSLRLSCAASGRIIYVNAMGWYRQAPGKERELVAAISSRGGTTYYADSVKGRFTISRDNAKNTVYLQMNSLKPEDTAVYYCNAGRVRHGNDYWGQGTQVTVSS | high polyreactivity |
| QVQLVESGGGLVQAGGSLRLSCAASGRIKGKNAMGWYRQAPGKERELVAAISSTGSTYYADSVKGRFSISRDNAKNTVYLQMNSLKPEDTAVYYCAATVEWWPGGWFDYWGQGTQVTVSS | high polyreactivity |

| Sequence | polyreactivity (PSR sort gate) |
| --- | --- |
| QVQLVESGGGLVQAGGSLRLSCAASGRILAANAMGWYRQAPGKERELVAAISWSGGRTYYADSVKGRFTISRDNAKNTVYLQMNSLKPEDTAVYYCIKLALAGYDYWGQGTQVTVSS | high polyreactivity |
| QVQLVESGGGLVQAGGSLRLSCAASGRILASYAMGWYRQAPGKERELVAAIRYRGSTSYADSVKGRFTISRDNAKNTVYLQMNSLKPEDTAVYYCNAGLEYYYWGYTWEFDYWGQGTQVTVSS | low polyreactivity |
| QVQLVESGGGLVQAGGSLRLSCAASGRILASYAMGWYRQAPGKEWELVAAIRYRGSTSYADSVKGRFTISRDNAKNTVYLQMNSLKPEDTGVYYCAAKWHVRGRGARYRYDYDFWGQGTQVTVSS | low polyreactivity |
| QVQLVESGGGLVQAGGSLRLSCAASGRILATYTKGWYRPAPGKERELVATITSGGRTTYADSVKGRFTISRDNAKNTVYLQMNSLKPEDTAVYYCNVAYWYYRKYRPLWGRDYYWGQGTQVTVSS | high polyreactivity |
| QVQLVESGGGLVQAGGSLRLSCAASGRILCGNTMGWYRQAPGKERELVAAISWNGGGTYYADSVKGRFTISRDNAKNTVYLQMNSLKPEDTAVYYCAAYKEPYYEEYGYWGQGTQVTVSS | low polyreactivity |
| QVQLVESGGGLVQAGGSLRLSCAASGRILDGYAMGWYRQATGKERELVAAISRTGGGTYYADSVKGRFTISRDNSKNTVFLQMISLKPEDTAVYYCAKRRYYITLQADFDYWGQGTQVTVSS | low polyreactivity |
| QVQLVESGGGLVQAGGSLRLSCAASGRILDIYAMGWYRQAPGKDRELVAAINSDGRTYYADSVKGRFTISRDNAKNTVYLQMNSLKPEDTAVYYCNARHHNKVARFDYWGQGTQVTVSS | low polyreactivity |
| QVQLVESGGGLVQAGGSLRLSCAASGRILFGNMGWYRQAHGKERELVAAISRGTGSTDYADSVKGRFTISRDNAKNTVYLQMNSLKPEDTAVYYCYARSYRVHLHYWRKWEYDYWGQGTQVTVSS | high polyreactivity |
| QVQLVESGGGLVQAGGSLRLSCAASGRILGDNVMGWYRQAPGKERELVAAISSGSGSTYYADSVKGRFTISRDKAKNTVYLQMNSLKPEDTAVYYCAAGPYIYPGYDYWGQGTQVTVSS | low polyreactivity |
| QVQLVESGGGLVQAGGSLRLSCAASGRILGDYAMGWYRQAPGKEREFVAAIDYNGGSTNYADSVKGRFTISRDNAKNTVYLQMNSLKPEDTAVYYCAAPGFPSRNGFGYWGQGTQVTVSS | low polyreactivity |
| QVQLVESGGGLVQAGGSLRLSCAASGRILGLYAMGWYRQAPGKESELVAAISRGGGSTYYADSLKGRFTISRDNAKNTVYLQMNSLKPEDTAVYYCATGLGYFSRLDYWGQGTQVTVSS | low polyreactivity |
| QVQLVESGGGLVQAGGSLRLSCAASGRILGVYVMGWYRQAPGKERELVAAISGGGRTNYADSVKGRFTISRDNAKNTVYLQMNSLKPEDTAVYYCNAERPYQYYPGIYRWYYYWGQGTQVTVSS | low polyreactivity |
| QVQLVESGGGLVQAGGSLRLSCAASGRILGWNAMGWYRQAPGKERELVAAISTSGTDTYYADSVKGRFTISSDNAKNTVYLQMNCLIPEDTAVYYCAADTVTIYWGLSVSYGCWGQGTQVTVSS | low polyreactivity |
| QVQLVESGGGLVQAGGSLRLSCAASGRILGYYAMGGSRQAPGKERELVAAISSGDSTNYADSVKGRFTISRDNAKNTVYLQMNSLKPEDTAVYYCAAKGWIWNPYNYWGQGTQGTVSS | low polyreactivity |
| QVQLVESGGGLVQAGGSLRLSCAASGRILGYYAMGWYRQAPGKERDLVAAISRAGSTNYADSVKGRFTISRDNAKNTVYLQMNSLKAEDTAVYYCAARPYRRGYNYWGQGTQVTVSS | high polyreactivity |
| QVQLVESGGGLVQAGGSLRLSCAASGRILGYYAMGWYRQAPGKERELVAAITYSGGSTYYADSVKGRFTISRDNAKNTVYLQMNSLKPEDTAVYYCAADKWLLGLYGSTWNDYWGQGTQVTVSS | low polyreactivity |
| QVQLVESGGGLVQAGGSLRLSCAASGRILHRYVMGWYIQAPGKERELVAAISSGGSTTYADSVKGRFTISRDNAKNTVYLQIYSLKPEDTAVYYCAKYSFWSTSRMDYWGQGTQVTVSS | low polyreactivity |
| QVQLVESGGGLVQAGGSLRLSCAASGRILHRYVMGWYRQAPGKERELVAAISSGGSTTYADSVKGRFTISRDNAKYTVYLQMNSLKPEDTAVYYCAADARYSRRYYYWGQGTQVTVSS | low polyreactivity |
| QVQLVESGGGLVQAGGSLRLSCAASGRILIRYAMGWYRQAPGKERELVASISTRGASTSYADSVKGRFTISRDNAKNTVYLQMNSLKPEDTAVYYCNARGSYPPYRSYGYWGQGTQVTVSS | low polyreactivity |
| QVQLVESGGGLVQAGGSLRLSCAASGRILKRYAMGWYRQAPGKERELVAAINWNGGSTYYADSVKGRFTISRDNAKNTVYLQMNSLKPEDTAVYYCAAYYGTPRGFDYWGQGTQVTVSS | high polyreactivity |
| QVQLVESGGGLVQAGGSLRLSCAASGRILKYYAMAWYREAPGKERELVAAIWSGGSTYYADSVKGRFTISRDNAKNTVYLLMNSLKPEDTAVYYCNAEYQWGGYGYDYWGQGTQVTVSS | low polyreactivity |
